This is an account of results in patent US20240301064A1.

The target in this experiment is PD-1 on PD-1 reporter Jurkat cells. Briefly: cell-based or functional assay.

In the case of CC-90006 (antibody), the SHP-2 recruitment, Ig-tethered test article, PD-1 reporter Jurkat cells; EC50 turned out to be 2.94 nM and the SHP-2 recruitment, Ig-tethered test article, PD-1 reporter Jurkat cells; EC50 (second experiment) worked out at 2.59 nM.
